Test results reported in US20200199579A1, “Rapid Display Method in Translational Synthesis of Peptide” (PeptiDream Inc., priority 2009, published 2020).

Tests used:
TNF-α = target: T1, TNF-α (Homo sapiens, UniProt P01375); assay: Verification of mapping: recovery from a 100:1 EMP1SS / TNF-α-DW mixture by TNF-α pull-down, PCR and gel electrophoresis; type: binding; conditions: an21-Phe linker; mRNA or cDNA input; FIG. 6
T1 construct: made in house; host or cells: E. coli (co-expressed with biotin ligase BirA)
T1 sequence (P01375 with tags, fused parts or gaps): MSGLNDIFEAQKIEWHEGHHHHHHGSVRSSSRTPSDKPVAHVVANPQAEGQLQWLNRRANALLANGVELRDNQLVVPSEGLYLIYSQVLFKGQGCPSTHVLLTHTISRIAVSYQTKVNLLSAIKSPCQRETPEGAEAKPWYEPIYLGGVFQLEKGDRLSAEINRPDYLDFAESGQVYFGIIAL
Method: This mixture was used to perform experiments similar to those described above, and the recovered DNA was amplified by PCR under the following conditions. That is, 20 μL of a reaction solution containing Taq polymerase and a test sample solution in PCR (taq-) buffer was prepared and reacted by temperature cycling of 30 cycles of {94° C. 40 sec, 61° C. 40 sec, 72° C. 40 sec} (with a slope of 0.5° C./sec from 61° C. to 72° C.) using a thermal cycler. 2.5 μL of the reaction product solution was separated by electrophoresis using a gel consisting of TAE (40 mM Tris-acetate, 1 mM EDTA) and 3% agarose (low electroendosmosis, NACALAI TESQUE, INC.), and electrophoretograms were obtained under a transilluminator after staining with ethidium bromide.
A band derived from the mRNA encoding TNF-α-DW is observed at the position of about 90 bp, while a band derived from the mRNA encoding the control EMP1SS is observed at the position of about 150 bp. When the an21-ACCA linker containing no peptidyl acceptor was used, only a band derived from the mRNA of EMP1SS was observed, reflecting the molar ratio of the two types of cDNA in the initial mixture.

[1] = target: T2, Human tumor necrosis factor-alpha (TNF-α) (Homo sapiens, UniProt P01375); assay: Yield of peptide-mRNA complexes presenting TNF-α-DW, recovered with biotinylated TNF-α on streptavidin beads and quantified by real-time PCR; conditions: peptide aptamer TNF-α-DW
T2 construct: made in house; host or cells: E. coli (co-expressed with biotin ligase BirA)
T2 sequence (P01375 with tags, fused parts or gaps): as above
Method: In the case where an mRNA is preliminarily prepared by transcription reaction and then translated into a peptide and the resulting peptide is fused to a linker, a peptide-mRNA complex was prepared by the following procedure. First, 4 mM sodium acetate, pH 5.0 and mRNA were mixed in 1:3, and the mixture was heated on a thermoblock at 95° C. for 1 minute and then allowed to stand at room temperature for 5 min. A 25 μM linker solution dissolved in 1 mM sodium acetate was added and the mixture was allowed to stand for 10 minutes to form an mRNA-linker complex. To this were added the other components of the translation system and the mixture was incubated in a constant-temperature water bath (NT-202D, Nissin Scientific Corporation) at 37° C. for 30 minutes, then at room temperature for 12 min, and 0.1 M EDTA (ethylenediaminetetraacetic acid, molecular biology grade, NACALAI TESQUE, INC.) adjusted to pH 7.5 was added at a final concentration of 20 mM, and the mixture was further incubated in the constant-temperature water bath at 37° C. for 30 minutes.
In the case where a cDNA is added to a reaction solution and transcription, translation and fusion to a linker are performed in this reaction solution, a peptide-mRNA complex was prepared by the following procedure. […]

| Substance | binding of the presented peptide to the target protein (TNF-α) | yield of peptide-mRNA complexes ([1]; cDNA added to the reaction solution (one-pot transcription/translation), FIG. 5) | yield of peptide-mRNA complexes ([1]; mRNA added to the translation reaction solution, FIG. 4) |
| --- | --- | --- | --- |
| XQRLHCLYLKH (X: Ac-D-Trp) [TNF-α-DW] | binds to the target protein |  |  |
| XAAGGTYSSHFGPLTWVSKPQGGAA, wherein X is Ac-D-Trp [EMP1SS, reference compound] | does not bind to the target |  |  |
| 5′-CCCGCCTCCCGCCCCCCGTCC-[SPC18]5-A*-C*-C*-A*-3′ [an21-ACCA] |  | 0.007% | 0.015% |
